Test results from patent publication US20240117061A1 (WUHAN YZY BIOPHARMA, published 2024).

Target: T1, recombinant cynomolgus monkey cynoBCMA-his (ACRO Biosystem, Cat. No. BCA-052H7) (cynomolgus monkey, UniProt A0A2K5UD97 1-53)
T1 construct: extracellular domain; Bought protein; also called cynomolgus/rhesus macaque BCMA/TNFRSF17 protein; not shown: His tag
Experiment: competitive ELISA, coated cynoBCMA-his, competitor 83A10-biotin

T1 sequence (A0A2K5UD97 entry or part of it): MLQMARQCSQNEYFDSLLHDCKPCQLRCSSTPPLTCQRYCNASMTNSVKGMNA

B1: human-mouse chimeric antibody c-mAb3 (antibody, human IgG1, V domains shown)
VH: EVQLQQSGPELVKPGASVKILCKASGYTITDYNMDWVKRSHGKSLEWIGNINPHNGGSIYNQKFKGKATLTVDKSSSTAFMELRSLTSEDTAVYYCARGDATLVLDYWGQGTSLTVSS
VL: DIVLTQSPASLAVSLGQRATISCRASKSVSTSGLSYMHWYQQKPGQPPKVLIYLASNLESGVPARFSGSGSGTDFTLNIHPVEEEDAATYYCQHSRELPPTFGAGTKLELK
notes: not shown: human IgG1 heavy chain constant region, GenBank No. AK303185.1; human kappa light chain constant region, GenBank No. MG815648.1
B1 showed an IC50 of 1.05 µg/mL.
